# Assay results published in patent publication US20200339657A1, “PEPTIDES AND COMBINATION THEREOF FOR USE IN THE IMMUNOTHERAPY AGAINST CANCERS” (Immatics Biotechnologies GmbH, priority 2017, published 2020).
# Target: HLA-A*24:02 (Homo sapiens, UniProt P04439, D101N/D140Y/D185E/E176V/E190D/F33S/G103R/G107R/I119L/I121M/I306V/K335N/L105A/L180Q/L300P/N151K/N90K/Q86E/Q94H/R106L/R138H/R89G/T104I/T345S/V100E/W191G/Y123F)
# Assay: MHC binding assay (UV-ligand exchange, β2m ELISA)
# Settings: not given
row,Substance,bind to HLA-A*24
1,DYIPYVFKL (listed as Homo sapiens) [SEQ ID NO: 268],binds to HLA-A*24

# Same assay, conditions: peptide exchange yield, binding to HLA-A*24:02
row,Substance,Peptide exchange
1,127 (IFINLSPEF; listed as Homo sapiens) [compound 127],“++++” (>75% = ++++)
2,113 (VWAKILSAF; listed as Homo sapiens) [compound 113],“+++” (>50 = +++)
3,115 (YFEEAANFL; listed as Homo sapiens) [compound 115],“++” (>20% = ++)
4,133 (SFDSNLLSF; listed as Homo sapiens) [compound 133],“+” (>10% = +)
5,126 (TFQDKTLNF; listed as Homo sapiens) [compound 126],“+++” (>50 = +++)
6,121 (SYIEKVRFL; listed as Homo sapiens) [compound 121],“+++” (>50 = +++)
7,136 (EYNNIQHLF; listed as Homo sapiens) [compound 136],“+++” (>50 = +++)
8,135 (VIAPIISNF; listed as Homo sapiens) [compound 135],“+++” (>50 = +++)
9,120 (MYAKEFDLL; listed as Homo sapiens) [compound 120],“+++” (>50 = +++)
10,123 (RQYLAINQI; listed as Homo sapiens) [compound 123],“+” (>10% = +)
11,128 (SYTKVEARL; listed as Homo sapiens) [compound 128],“+++” (>50 = +++)
12,141 (KYLSIPAVFF; listed as Homo sapiens) [compound 141],“++++” (>75% = ++++)
13,138 (KYLSIPTVF; listed as Homo sapiens) [compound 138],“++++” (>75% = ++++)
14,118 (TYISKTIAL; listed as Homo sapiens) [compound 118],“+++” (>50 = +++)
15,114 (KFLDSNIKF; listed as Homo sapiens) [compound 114],“+++” (>50 = +++)
16,125 (IYGPKYIHPSF; listed as Homo sapiens) [compound 125],“++++” (>75% = ++++)
17,140 (KYLSIPAVF; listed as Homo sapiens) [compound 140],“++++” (>75% = ++++)
18,122 (KLYGMPTDFGF; listed as Homo sapiens) [compound 122],“++” (>20% = ++)
19,139 (PYASLASELF; listed as Homo sapiens) [compound 139],“++++” (>75% = ++++)
20,134 (TYLTGRQF; listed as Homo sapiens) [compound 134],“++” (>20% = ++)
21,130 (VYGDGHYLTF; listed as Homo sapiens) [compound 130],“+++” (>50 = +++)
22,117 (NFLPPIIARF; listed as Homo sapiens) [compound 117],“++++” (>75% = ++++)
23,129 (VFLNQIYTQL; listed as Homo sapiens) [compound 129],“++” (>20% = ++)
24,116 (LVLDYSKDYNHW; listed as Homo sapiens) [compound 116],“+” (>10% = +)
25,137 (KYLSLSNSF; listed as Homo sapiens) [compound 137],“++++” (>75% = ++++)

# Target: HLA-A*02:01 (Homo sapiens, UniProt P04439, D140Y/D185E/D98H/E176V/E277Q/G131W/G231S/I119V/I121R/I166T/I218V/L300P/L318F/N151K/N90K/P208A/P217A/Q86G/Q94H/R138H/R169H/T345S)
# Assay: MHC binding assay (UV-ligand exchange, β2m ELISA)
# Settings: peptide exchange yield, binding to HLA-A*02:01
row,Substance,Peptide exchange
1,61 (RLFGLFLNNV; listed as Homo sapiens) [compound 61],“++++” (>75% = ++++)
2,55 (RLWQIQHHL; listed as Homo sapiens) [compound 55],“+++” (>50 = +++)
3,52 (YVSSGEMMV; listed as Homo sapiens) [compound 52],“+++” (>50 = +++)
4,45 (KLLDEVTYL; listed as Homo sapiens) [compound 45],“+++” (>50 = +++)
5,39 (YLLPSVVLL; listed as Homo sapiens) [compound 39],“++++” (>75% = ++++)
6,41 (SLQDTKITL; listed as Homo sapiens) [compound 41],“+++” (>50 = +++)
7,44 (SQTGFVVLV; listed as Homo sapiens) [compound 44],“++” (>20% = ++)
8,53 (LLMTSLTES; listed as Homo sapiens) [compound 53],“+++” (>50 = +++)

# Target: HLA-B*07:02 (Homo sapiens, UniProt P01889)
# Assay: MHC binding assay (UV-ligand exchange, β2m ELISA)
# Settings: peptide exchange yield, binding to HLA-B*07:02
row,Substance,Peptide exchange
1,145 (RVPSYTLIL; listed as Homo sapiens) [compound 145],“+++” (>50 = +++)
2,147 (SPIKVPLLL; listed as Homo sapiens) [compound 147],“+++” (>50 = +++)
3,144 (IPEPSAQQL; listed as Homo sapiens) [compound 144],“++” (>20% = ++)
4,148 (VPDGVSKVL; listed as Homo sapiens) [compound 148],“++” (>20% = ++)
5,146 (SPGDKRLAA; listed as Homo sapiens) [compound 146],“+++” (>50 = +++)
6,143 (FELPTGAGLQL; listed as Homo sapiens) [compound 143],“++” (>20% = ++)

# Continued, values first:
row,Peptide exchange,Substance
1,“++” (>20% = ++),167 (YPSEVEHMF; listed as Homo sapiens) [compound 167]
2,“+++” (>50 = +++),165 (TPIAKVSEL; listed as Homo sapiens) [compound 165]
3,“+++” (>50 = +++),153 (APAAVPSAPA; listed as Homo sapiens) [compound 153]
4,“++” (>20% = ++),257 (SPLRGGSSL; listed as Homo sapiens) [compound 257]
5,“+++” (>50 = +++),170 (SPMWHVQQL; listed as Homo sapiens) [compound 170]
6,“++” (>20% = ++),255 (LPDGSRVEL; listed as Homo sapiens) [compound 255]
7,“+++” (>50 = +++),152 (IPSRLLAIL; listed as Homo sapiens) [compound 152]
8,“++” (>20% = ++),162 (MPMISIPRV; listed as Homo sapiens) [compound 162]
9,“++” (>20% = ++),158 (VPERGEPEL; listed as Homo sapiens) [compound 158]
10,“+++” (>50 = +++),150 (KPSSKALGTSL; listed as Homo sapiens) [compound 150]
11,“+++” (>50 = +++),171 (APKLFAVAF; listed as Homo sapiens) [compound 171]
12,“+++” (>50 = +++),156 (HPQVVILSL; listed as Homo sapiens) [compound 156]
13,“++” (>20% = ++),175 (HPIETLVDIF; listed as Homo sapiens) [compound 175]
14,“++” (>20% = ++),259 (RPAVGHSGL; listed as Homo sapiens) [compound 259]
15,“+++” (>50 = +++),172 (KPAHYPLIAL; listed as Homo sapiens) [compound 172]
16,“++” (>20% = ++),159 (FPAHPSLLL; listed as Homo sapiens) [compound 159]

row,Peptide exchange,Substance
1,“++” (>20% = ++),166 (HDPDVGSNSL; listed as Homo sapiens) [compound 166]
2,“++” (>20% = ++),157 (SPSPGKDPTL; listed as Homo sapiens) [compound 157]
3,“++” (>20% = ++),164 (ISTPSEVSTPL; listed as Homo sapiens) [compound 164]
4,“++” (>20% = ++),173 (MVPSAGQLALF; listed as Homo sapiens) [compound 173]
5,“+++” (>50 = +++),256 (LPALPQQLI; listed as Homo sapiens) [compound 256]
6,“++” (>20% = ++),155 (FPYPYAERL; listed as Homo sapiens) [compound 155]
7,“++” (>20% = ++),258 (APSGTRVVQVL; listed as Homo sapiens) [compound 258]
8,“++” (>20% = ++),163 (RPASSLRP; listed as Homo sapiens) [compound 163]
9,“++” (>20% = ++),154 (GPGTRLSL; listed as Homo sapiens) [compound 154]
10,“++” (>20% = ++),168 (IPTDKLLVI; listed as Homo sapiens) [compound 168]
11,“++” (>20% = ++),149 (YPLTGDTRL; listed as Homo sapiens) [compound 149]
12,“+++” (>50 = +++),160 (RPAPADSAL; listed as Homo sapiens) [compound 160]
13,“+++” (>50 = +++),174 (VPSLQRLML; listed as Homo sapiens) [compound 174]
14,“++” (>20% = ++),151 (VVHPRTLLL; listed as Homo sapiens) [compound 151]
15,“++” (>20% = ++),169 (FPTEVTPHAF; listed as Homo sapiens) [compound 169]
16,“++” (>20% = ++),161 (NPYEGRVEV; listed as Homo sapiens) [compound 161]

# Tested on: CD8+ T cells
# Assay: In vitro immunogenicity: T-cell priming with aAPCs loaded with peptide/MHC and anti-CD28, multimer readout
# Type: cell-based, human
# Settings: HLA A*24
row,Substance,Wells positive [%]
1,138 (KYLSIPTVF; listed as Homo sapiens) [compound 138],“+” (<20% = +)

# Same assay, conditions: HLA B*07
row,Substance,Wells positive [%]
1,144 (IPEPSAQQL; listed as Homo sapiens) [compound 144],“+” (<20% = +)
2,170 (SPMWHVQQL; listed as Homo sapiens) [compound 170],“++++” (>= 70% = ++++)
3,255 (LPDGSRVEL; listed as Homo sapiens) [compound 255],“++++” (>= 70% = ++++)
4,156 (HPQVVILSL; listed as Homo sapiens) [compound 156],“++” (20%-49% = ++)
5,148 (VPDGVSKVL; listed as Homo sapiens) [compound 148],“+++” (50%-69% = +++)
6,146 (SPGDKRLAA; listed as Homo sapiens) [compound 146],“++” (20%-49% = ++)
7,172 (KPAHYPLIAL; listed as Homo sapiens) [compound 172],“+++” (50%-69% = +++)
8,164 (ISTPSEVSTPL; listed as Homo sapiens) [compound 164],“+” (<20% = +)
9,155 (FPYPYAERL; listed as Homo sapiens) [compound 155],“+++” (50%-69% = +++)
